Results: US20050164323A1 (Pfizer, published 2005)

Target: PKC-θ kinase domain (PKC-θ KD; amino acid residues 362 to 706), C-terminal hexa-histidine tag, expressed in … (Homo sapiens (Human), UniProt Q04759 362-706, autophosphorylated at 5 or 6 residues in E. coli; sites identified: Ser695, Ser685 and Thr538 or Thr536 (numbering of full-length PKC-θ))
Assay: cell-based or functional assay

Sequence of PKC-θ kinase domain (PKC-θ KD; amino acid residues 362 to 706), C-terminal hexa-histidine tag, expressed in … (Q04759 other isoform, or with tags, fused parts or gaps limits assumed): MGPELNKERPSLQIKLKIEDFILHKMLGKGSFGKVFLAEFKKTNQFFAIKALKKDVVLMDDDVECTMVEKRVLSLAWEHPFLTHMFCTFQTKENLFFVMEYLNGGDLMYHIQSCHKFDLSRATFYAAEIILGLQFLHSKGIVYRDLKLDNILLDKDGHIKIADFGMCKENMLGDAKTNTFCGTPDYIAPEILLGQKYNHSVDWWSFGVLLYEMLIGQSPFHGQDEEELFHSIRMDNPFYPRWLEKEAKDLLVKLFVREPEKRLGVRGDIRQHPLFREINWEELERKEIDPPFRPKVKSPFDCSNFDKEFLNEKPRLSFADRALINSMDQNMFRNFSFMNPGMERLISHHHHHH

Binder	appKm (steady-state kinase kinetics, saturating ATP, 100 mM NaCl)
RTPKLARQASIELPSM [Peptide 4 (RTPKLARQASIELPSM), substrate, lymphocyte-specific protein 1]	240 µM
RFARKGSLRQKNV [Peptide 2 (RFARKGSLRQKNV), substrate, pseudo-substrate PKC alpha]	4.3 µM

Results, then the binder that gave them:

appKm (steady-state kinase kinetics, saturating ATP, 100 mM NaCl)	Binder
420 µM	LKRSLSEM [Peptide 3 (LKRSLSEM), substrate, Serum Response Factor]
6.5 µM	FARKGSLRQ [Peptide 1 (FARKGSLRQ), substrate, pseudo-substrate PKC alpha]
